# Laboratory results as given in US20160376333A1 (University of Washington, published 2016).
# T1: human Bcl-w a.a. 1-182 with C-terminal avi-6his tag (human, UniProt Q92843 1-182)
# T1 construct: range 1-182; also called BCL2L2
# T1 sequence: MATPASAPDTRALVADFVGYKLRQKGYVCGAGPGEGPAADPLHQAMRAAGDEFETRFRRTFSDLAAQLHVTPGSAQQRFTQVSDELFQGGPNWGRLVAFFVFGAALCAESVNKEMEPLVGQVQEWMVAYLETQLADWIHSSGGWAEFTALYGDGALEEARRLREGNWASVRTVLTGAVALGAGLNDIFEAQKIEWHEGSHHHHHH
# T2: human Mcl-1 a.a. 172-327 with C-terminal avi-6his tag (human)
# T2 chain: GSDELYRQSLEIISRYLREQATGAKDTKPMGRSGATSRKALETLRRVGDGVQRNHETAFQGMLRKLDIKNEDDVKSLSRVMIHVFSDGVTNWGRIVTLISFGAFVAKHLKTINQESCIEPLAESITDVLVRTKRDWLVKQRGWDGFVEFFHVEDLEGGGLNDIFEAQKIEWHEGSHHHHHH
# T3: human Bfl-1 a.a. 1-153 (C4S) with C-terminal avi-6his tag (human)
# T3 construct: also called A1/Bfl-1
# T3 chain: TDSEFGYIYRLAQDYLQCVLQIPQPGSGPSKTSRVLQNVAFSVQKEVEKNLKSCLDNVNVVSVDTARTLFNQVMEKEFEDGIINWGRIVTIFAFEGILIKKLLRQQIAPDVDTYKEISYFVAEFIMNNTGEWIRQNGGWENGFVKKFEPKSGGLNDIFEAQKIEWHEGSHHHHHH
# T4: human Bcl-B a.a. 11-175 with C-terminal avi-6his tag (human)
# T4 construct: also called BCL2L10
# T4 chain: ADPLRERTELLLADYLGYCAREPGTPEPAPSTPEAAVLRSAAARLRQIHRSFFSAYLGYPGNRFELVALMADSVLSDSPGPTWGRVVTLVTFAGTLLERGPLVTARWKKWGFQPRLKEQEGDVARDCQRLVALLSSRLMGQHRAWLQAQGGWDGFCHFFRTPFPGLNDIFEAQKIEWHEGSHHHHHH
# T5: Epstein-Barr virus BHRF1 a.a. 1-161 with C-terminal avi-6his tag (Epstein-Barr virus)
# T5 construct: also called EBV BHRF1; BHRF1-biotin
# T5 chain: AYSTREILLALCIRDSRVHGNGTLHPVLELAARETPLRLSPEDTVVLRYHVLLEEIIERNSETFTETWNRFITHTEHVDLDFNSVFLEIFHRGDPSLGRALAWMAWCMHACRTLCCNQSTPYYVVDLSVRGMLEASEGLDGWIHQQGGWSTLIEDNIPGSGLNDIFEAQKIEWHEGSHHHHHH
# Key:
# [1] = target: T1, human Bcl-w a.a. 1-182 with C-terminal …; test: BLI, biotinylated target on streptavidin sensor, range of analyte concentrations
# [2] = target: T2, human Mcl-1 a.a. 172-327 with …; test: as above
# [3] = target: T3, human Bfl-1 a.a. 1-153 (C4S) with …; test: as above
# [4] = target: T6, human Bcl-2 a.a. 1-207 with C-terminal avi-6his tag (human, UniProt P10415 2-207); test: as above
# Target sequence in this assay (P10415 other isoform, or with tags, fused parts or gaps limits assumed): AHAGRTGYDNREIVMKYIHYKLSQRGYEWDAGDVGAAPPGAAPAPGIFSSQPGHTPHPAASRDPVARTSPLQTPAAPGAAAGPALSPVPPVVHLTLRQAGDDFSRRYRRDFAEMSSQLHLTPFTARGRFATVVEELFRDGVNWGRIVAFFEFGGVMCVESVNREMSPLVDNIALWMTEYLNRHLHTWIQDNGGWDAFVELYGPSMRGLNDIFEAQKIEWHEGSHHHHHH
# [5] = target: T4, human Bcl-B a.a. 11-175 with C-terminal …; test: as above
# [6] = target: T7, human Bcl-XL a.a. 1-205 with C-terminal avi-6his tag (human, UniProt Q07817 2-206); test: as above
# T7 construct: also called BCL2L1
# Target sequence in this assay (Q07817 other isoform, or with tags, fused parts or gaps limits assumed): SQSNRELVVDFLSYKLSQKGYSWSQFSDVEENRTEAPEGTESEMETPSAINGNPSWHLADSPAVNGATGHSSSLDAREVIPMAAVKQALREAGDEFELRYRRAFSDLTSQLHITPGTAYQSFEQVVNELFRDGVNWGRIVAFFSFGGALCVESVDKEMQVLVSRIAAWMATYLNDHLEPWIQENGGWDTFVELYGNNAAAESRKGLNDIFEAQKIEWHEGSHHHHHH
# [7] = target: T2, human Mcl-1 a.a. 172-327 with …; test: ratio of the KD of the next tightest BCL2 protein to the KD of the target, BLI
# [8] = target: Mcl-1 in human cancer cell lines (HeLa, colon cancer lines) (human, UniProt Q07820 1-350); test: cell-based or functional assay
# [9] = target: T1, human Bcl-w a.a. 1-182 with C-terminal …; test: ratio of the KD of the next tightest BCL2 protein to the KD of the target, BLI
# [10] = target: T5, Epstein-Barr virus BHRF1 a.a. 1-161 …; test: effect of the mutation on specificity (KD(BHRF1)/KD(Mcl-1) ratio): change in binding energy for BHRF1 minus that for Mcl-1, relative to BbpD04; assay not named on the sheet
# [11] = target: T1, human Bcl-w a.a. 1-182 with C-terminal …; test: BLI, biotinylated target on streptavidin sensor
# [12] = target: T2, human Mcl-1 a.a. 172-327 with …; test: BLI, biotinylated target on streptavidin sensor
# [13] = target: T3, human Bfl-1 a.a. 1-153 (C4S) with …; test: BLI, biotinylated target on streptavidin sensor
# [14] = target: T6, human Bcl-2 a.a. 1-207 with C-terminal …; test: BLI, biotinylated target on streptavidin sensor
# [15] = target: T5, Epstein-Barr virus BHRF1 a.a. 1-161 …; test: BLI, biotinylated target on streptavidin sensor
# [16] = target: T4, human Bcl-B a.a. 11-175 with C-terminal …; test: BLI, biotinylated target on streptavidin sensor
# [17] = target: T7, human Bcl-XL a.a. 1-205 with C-terminal …; test: BLI, biotinylated target on streptavidin sensor
# [18] = target: T2, human Mcl-1 a.a. 172-327 with …; test: BLI
# [19] = target: T1, human Bcl-w a.a. 1-182 with C-terminal …; test: yeast surface display titration (apparent KD)
# [20] = target: T2, human Mcl-1 a.a. 172-327 with …; test: yeast surface display titration (apparent KD)
# [21] = target: T3, human Bfl-1 a.a. 1-153 (C4S) with …; test: yeast surface display titration (apparent KD)
# [22] = target: T6, human Bcl-2 a.a. 1-207 with C-terminal …; test: yeast surface display titration (apparent KD)
# [23] = target: T5, Epstein-Barr virus BHRF1 a.a. 1-161 …; test: yeast surface display titration (apparent KD)
# [24] = target: T7, human Bcl-XL a.a. 1-205 with C-terminal …; test: yeast surface display titration (apparent KD)
# [25] = target: T1, human Bcl-w a.a. 1-182 with C-terminal …; test: yeast surface display titration; apparent binding constant (mean ± SE, n = 3-6)
# [26] = target: T2, human Mcl-1 a.a. 172-327 with …; test: as above
# [27] = target: T3, human Bfl-1 a.a. 1-153 (C4S) with …; test: as above
# [28] = target: T6, human Bcl-2 a.a. 1-207 with C-terminal …; test: as above
# [29] = target: T7, human Bcl-XL a.a. 1-205 with C-terminal …; test: as above
# [30] = target: T1, human Bcl-w a.a. 1-182 with C-terminal …; test: BLI at a single analyte concentration (50 nM, 600 s association, then buffer); biotinylated BCL2 protein on a streptavidin sensor
# [31] = target: T2, human Mcl-1 a.a. 172-327 with …; test: as above
# [32] = target: T3, human Bfl-1 a.a. 1-153 (C4S) with …; test: as above
# [33] = target: T6, human Bcl-2 a.a. 1-207 with C-terminal …; test: as above
# [34] = target: T4, human Bcl-B a.a. 11-175 with C-terminal …; test: as above
# [35] = target: T7, human Bcl-XL a.a. 1-205 with C-terminal …; test: as above
# Mcl-1 in human cancer cell lines (HeLa, colon cancer lines), sequence (Q07820 whole entry): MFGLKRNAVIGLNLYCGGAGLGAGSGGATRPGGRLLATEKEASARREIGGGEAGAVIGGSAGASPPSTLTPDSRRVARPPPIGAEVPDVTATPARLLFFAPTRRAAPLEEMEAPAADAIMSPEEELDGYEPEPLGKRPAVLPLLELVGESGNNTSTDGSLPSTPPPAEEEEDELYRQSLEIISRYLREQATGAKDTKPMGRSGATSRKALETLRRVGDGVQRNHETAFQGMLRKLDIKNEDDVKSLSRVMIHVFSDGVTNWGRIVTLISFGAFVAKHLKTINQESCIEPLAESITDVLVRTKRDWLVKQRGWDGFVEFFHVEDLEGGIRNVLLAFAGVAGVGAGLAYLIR
binder,measurement,setting,value
"MINDI (Mcl-1-inhibiting design acting intracellularly) (designed binder, also called M-CDP04; αMCL1) ADPKKVLDKAKDQAENRVRELKQVLEELYKEARKLDLTQEMRKKLIERYAAAIIRAIGDINNAIYQAKQEAEKLKKAGLVNSQQLDELLRRLDELQKEASRKANEYGREFELKLEY",Kd,[1],200000 nM
same,Kd,[2],0.15 nM
same,Kd,[3],30000 nM
same,Kd,[4],14200 nM
same,Kd,[5],40000 nM
same,Kd,[6],400000 nM
same,Specificity,[7],93000 fold
same,decrease of the EC50 of A-1331852 in colon cancer lines on expression of αMCL1,[8],4.6 fold
W-CDP03 (designed binder) DPKKVFDEAKDRAENNVRRLKQKLEELYKEARKKDLTQEEREKLKEKYKTAMAAAALAAIGDAFNALLKARKLHKNGQVNEQQLEELARRLQELAKEAFQKAKDYANEFEYKLEY,apparent Kd (pooled screen),[1],8 nM
same,Kd,[2],55.3 nM
same,Kd,[3],400 nM
same,Kd,[4],18.8 nM
same,Kd,[5],400 nM
same,Kd,[6],7.43 nM
same,Specificity,[9],0.9 fold
E48R (designed binder) designed protein: ADWKKVLDKAKDIAENRVREIKQKLEEFYKKAMKLDLTQEMRRKLMLRWIAAMLMAIGDIFNAIEQAKQEADKLKKAGQVNSQLLDELKRRLEELKEEASRKCHDYGREFQLKLEY,[..] ΔΔG BHRF1 - ΔΔG Mcl-1,[10],-0.762 kcal/mol
BINDI N62S (designed binder) ADPKKVLDKAKDQAENRVRELKQKLEELYKEARKLDLTQEMRRKLELRYIAAMLMAIGDIYSAIRQAKQEADKLKKAGLVNSQQLDELKRRLEELKEEASRKARDYGREFQLKLEY,Kd,[11],4600 nM
same,Kd,[12],230 nM
same,Kd,[13],4000 nM
same,Kd,[14],30000 nM
same,Kd,[15],0.16 nM
same,Kd,[16],50000 nM
same,Kd,[17],8000 nM
same,fold decrease of affinity relative to BINDI,[18],6 fold
BbpD04.2 (designed binder) ADWKKVLDKAKDIAENRVRELKQKLEEFYKEAMKLDLTQEMRRKLMLRWIAAMLMAIGDIFNAIRQAKQEADKLKKAGLVNSQQLDELKRRLEELKEEASRKCRDYGREFQLKLEY,Kd,[19],40 nM
same,Kd,[20],26 nM
same,Kd,[21],70 nM
same,Kd,[22],33 nM
same,Kd,[23],0.6 nM
same,Kd,[24],31 nM
BbpD04.2 C103V (designed binder) designed protein: ADWKKVLDKAKDIAENRVRELKQKLEEFYKEAMKLDLTQEMRRKLMLRWIAAMLMAIGDIFNAIRQAKQEADKLKKAGLVNSQQLDELKRRLEELKEEASRKVRDYGREFQLKLEY,Kd,[25],9.6 nM
same,Kd,[26],2.3 nM
same,Kd,[27],19 nM
same,Kd,[28],12.6 nM
same,Kd,[29],20 nM
M-CDP03 (designed binder) ADPKKVLDKAKDQAENRVRELKQDLERLYKEARKLDLTQEMRRKLQEKAAAAMIRAIGDINNAIYQALQEADKLKKAGLVNSQQLDELKRRLEELQKEASRKAQAYGEEFMLKLEY,binding result,[30],no binding (tested: 50 nM)
same,binding result,[31],binds
same,binding result,[32],no binding (tested: 50 nM)
same,binding result,[33],no binding (tested: 50 nM)
same,binding result,[34],no binding (tested: 50 nM)
same,binding result,[35],no binding (tested: 50 nM)
